# From US20240182536A1 (MURAL ONCOLOGY, published 2024)
# B1: G3T/M60K-monospecific KiH (Fc fusion)
# chain: YFTKLESKLSVIRNLNDQVLFIDQGNRPLFEDMTDSDMRDNAPRTIFIISMYKDSQPRGKAVTISVKSEKISTLSSENKIISFKEMNPPDNIKDTKSDIIFFQRSVPGHDNKMQFESSSYEGYFLASEKERDLFKLILKKEDELGDRSIMFTVQNED
# B2: G3V/M60K-monospecific KiH (Fc fusion)
# chain: YFVKLESKLSVIRNLNDQVLFIDQGNRPLFEDMTDSDMRDNAPRTIFIISMYKDSQPRGKAVTISVKSEKISTLSSENKIISFKEMNPPDNIKDTKSDIIFFQRSVPGHDNKMQFESSSYEGYFLASEKERDLFKLILKKEDELGDRSIMFTVQNED
# B3: G3T/E6K/K53A-monospecific KiH (Fc fusion)
# chain: YFTKLKSKLSVIRNLNDQVLFIDQGNRPLFEDMTDSDMRDNAPRTIFIISMYADSQPRGMAVTISVKSEKISTLSSENKIISFKEMNPPDNIKDTKSDIIFFQRSVPGHDNKMQFESSSYEGYFLASEKERDLFKLILKKEDELGDRSIMFTVQNED
# What was measured:
# [1] = biological target: T1, IL-18 receptors on HEK-Blue IL-18 reporter cells (UniProt Q13478 19-541; O95256 20-599, limits assumed); test: cell-based or functional assay
# T1 sequence (looked up) 1: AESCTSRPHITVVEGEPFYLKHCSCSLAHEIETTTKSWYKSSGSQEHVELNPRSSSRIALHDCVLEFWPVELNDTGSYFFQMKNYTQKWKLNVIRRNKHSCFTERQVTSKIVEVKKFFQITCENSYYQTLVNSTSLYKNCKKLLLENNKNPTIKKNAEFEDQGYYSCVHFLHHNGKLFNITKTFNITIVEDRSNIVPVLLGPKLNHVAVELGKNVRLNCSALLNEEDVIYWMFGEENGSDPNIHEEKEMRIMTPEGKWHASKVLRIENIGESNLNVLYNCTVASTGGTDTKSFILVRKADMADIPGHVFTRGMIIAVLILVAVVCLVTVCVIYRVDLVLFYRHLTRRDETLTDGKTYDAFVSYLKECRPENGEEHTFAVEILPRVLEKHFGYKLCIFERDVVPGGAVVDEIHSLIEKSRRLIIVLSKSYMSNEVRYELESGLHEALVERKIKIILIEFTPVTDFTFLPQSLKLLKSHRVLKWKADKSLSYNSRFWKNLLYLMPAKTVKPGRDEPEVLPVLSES
# T1 sequence (looked up) 2: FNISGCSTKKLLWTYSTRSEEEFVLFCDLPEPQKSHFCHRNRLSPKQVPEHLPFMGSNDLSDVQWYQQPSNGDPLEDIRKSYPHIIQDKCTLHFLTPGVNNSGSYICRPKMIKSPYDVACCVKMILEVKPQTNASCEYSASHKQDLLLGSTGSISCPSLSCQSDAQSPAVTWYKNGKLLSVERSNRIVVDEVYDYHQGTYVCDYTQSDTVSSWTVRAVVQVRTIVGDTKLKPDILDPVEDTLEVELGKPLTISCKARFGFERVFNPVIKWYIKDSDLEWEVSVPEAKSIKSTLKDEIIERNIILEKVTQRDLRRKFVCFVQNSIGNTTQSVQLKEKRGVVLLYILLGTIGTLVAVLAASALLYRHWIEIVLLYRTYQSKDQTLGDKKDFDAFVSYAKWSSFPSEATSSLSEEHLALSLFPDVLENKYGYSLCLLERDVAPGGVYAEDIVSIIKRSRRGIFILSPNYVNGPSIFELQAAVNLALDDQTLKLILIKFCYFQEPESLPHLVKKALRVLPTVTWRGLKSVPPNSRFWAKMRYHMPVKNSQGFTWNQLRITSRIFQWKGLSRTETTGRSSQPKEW
# [2] = biological target: T2, human IL-18 binding protein (human, UniProt O95998 31-194); test: cell-based or functional assay
# T2 sequence (looked up): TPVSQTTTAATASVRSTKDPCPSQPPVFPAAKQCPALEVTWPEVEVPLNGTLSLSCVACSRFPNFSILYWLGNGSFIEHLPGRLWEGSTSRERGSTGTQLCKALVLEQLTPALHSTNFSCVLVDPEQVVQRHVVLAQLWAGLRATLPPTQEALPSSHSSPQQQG
Binder,HEK-blue EC50 (pM) - IL-18BP [1] [pM],HEK-blue EC50 (pM) + 300 nM IL-18BP [2] [pM]
B1,0.27,2.64
B2,0.06,2.01
B3,0.04,1.16
